In publication doi:10.1101/2020.02.11.943977:
Read-outs that look alike come from different tables or passages of the source.

Columns and labels:
Assay in all cases: EMSA
[1] = target: T1, Replication protein A (RPA heterotrimer) (human, UniProt P27694;P15927;P35244 1-616;1-270;1-121)
[2] = target: T1, Replication protein A (RPA heterotrimer); remark: listed apart in the source
[3] = target: T1, Replication protein A (RPA heterotrimer); remark: listed apart in the source
[4] = target: T1, Replication protein A (RPA heterotrimer); remark: listed apart in the source
[5] = target: T1, Replication protein A (RPA heterotrimer); remark: listed apart in the source

T1 sequence (P27694 whole entry, chain 1 of 3): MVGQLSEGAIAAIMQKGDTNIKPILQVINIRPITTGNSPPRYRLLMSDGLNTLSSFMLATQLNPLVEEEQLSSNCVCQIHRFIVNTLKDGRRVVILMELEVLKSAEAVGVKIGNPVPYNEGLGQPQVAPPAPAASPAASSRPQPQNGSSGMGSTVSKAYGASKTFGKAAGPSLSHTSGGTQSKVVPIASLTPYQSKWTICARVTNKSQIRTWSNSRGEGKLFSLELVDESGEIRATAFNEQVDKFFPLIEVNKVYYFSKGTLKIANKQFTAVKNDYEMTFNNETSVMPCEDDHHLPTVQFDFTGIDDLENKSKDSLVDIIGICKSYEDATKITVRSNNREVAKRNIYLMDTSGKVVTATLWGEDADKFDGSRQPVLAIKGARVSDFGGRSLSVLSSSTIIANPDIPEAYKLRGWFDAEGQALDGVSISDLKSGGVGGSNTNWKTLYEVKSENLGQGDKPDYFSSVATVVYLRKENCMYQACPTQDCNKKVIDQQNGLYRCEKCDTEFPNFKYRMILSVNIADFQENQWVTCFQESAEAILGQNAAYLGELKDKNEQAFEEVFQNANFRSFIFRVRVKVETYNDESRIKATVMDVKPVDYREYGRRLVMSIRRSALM
T1 sequence (P15927 whole entry, chain 2 of 3): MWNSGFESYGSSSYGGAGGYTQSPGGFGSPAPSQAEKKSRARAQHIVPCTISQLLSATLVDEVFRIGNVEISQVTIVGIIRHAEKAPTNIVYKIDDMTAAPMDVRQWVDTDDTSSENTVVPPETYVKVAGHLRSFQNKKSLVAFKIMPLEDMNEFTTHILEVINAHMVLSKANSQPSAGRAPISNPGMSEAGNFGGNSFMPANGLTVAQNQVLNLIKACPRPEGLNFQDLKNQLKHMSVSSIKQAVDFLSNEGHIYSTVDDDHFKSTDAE
T1 sequence (P35244 whole entry, chain 3 of 3): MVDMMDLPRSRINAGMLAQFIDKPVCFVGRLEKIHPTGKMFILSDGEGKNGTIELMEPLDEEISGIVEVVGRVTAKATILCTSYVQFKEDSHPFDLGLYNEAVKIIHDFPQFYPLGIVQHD

## GAAGCAUUUAUCAGGGUUAUUGUCUCAUGAGCGGAUACAUAUUUGAAU (ssRNA) [RNA no. 501]
[1]
  Kd: 101 ± 17 pM
[2]
  Kd: 72 ± 10.2 pM

B1: RNA-DNA hybrid nos. 501/212 (DNA:RNA)
RNA: GAAGCAUUUAUCAGGGUUAUUGUCUCAUGAGCGGAUACAUAUUUGAAU
DNA: ATTCAAATATGTATCCGCTCATGAGACAATAACCCTGATAAATGCTTC
[1]
  Kd: 85900 ± 4500 pM

## GAAGCAUUUAUCAGGGUUAUUGUC (ssRNA) [RNA no. 5R (24 nt)]
[3]
  apparent K (half saturation): 120 nM

## CGUUAAGGGAUUUUGGUCAUGAGAUUAUCAAAAAGGAUCUUCACCUAG (ssRNA) [RNA no. 7R]
[4]
  Kd: 248 ± 32.7 pM

## UUUUAAAUCAAUCUAAAGUAUAUAUGAGUAAACUUGGUCUGACAGUUA (ssRNA) [RNA no. 8R]
[4]
  Kd: 62.9 ± 8.2 pM

## AAUGCUUAAUCAGUGAGGCACCUAUCUCAGCGAUCUGUCUAUUUCGUU (ssRNA) [RNA no. 3R]
[5]
  Kd: 100 ± 23.2 pM

## GAAGCAUUUAUCAGGGUUAUUGUCUCAUGAGCGGAU (ssRNA) [RNA no. 6R (36 nt)]
[3]
  apparent K (half saturation): 65 nM

## GAAGCATTTATCAGGGTTATTGTCTCATGAGCGGATACATATTTGAAT (ssDNA) [ssDNA no. 211]
[1]
  Kd: 3.1 ± 0.6 pM

B2: dsDNA nos. 211/212 (dsDNA)
DNA 1: GAAGCATTTATCAGGGTTATTGTCTCATGAGCGGATACATATTTGAAT
DNA 2: B1 DNA
[1]
  Kd: 35500 ± 7000 pM
